The values below come from US20170137511A1 (CALYPSO BIOTECH, published 2017).

B1: huB-E29-22 (antibody, human IgG1, kappa, V domains shown)
VH: EVQLVESGGGLVQPGGSLRLSCAASEFTFSNYAMSWVRQAPGKGLEWVATISRGGDYTYYPDSVKGRFTISRDNSKNTLYLQMNSLRAEDTAVYYCARRVSFITGGYAFDYWGQGTLVTVSS
VL: DVVMTQSPLSLPVTLGQPASISCRSSQSIVDITGNTYLEWFQQRPGQSPRRLIYKVFNRFSGVPDRFSGSGSGTDFTLKISRVEAEDVGVYYCFQESFVPYTFGQGTKLEIKR
notes: Humanized B-E29 variant; human IgG1 (G1m3) / kappa (Km3), produced in CHO cells; also called huVH16/huVL6
B2: huB-E29-9 (antibody, human IgG1, kappa, V domains shown)
VH: EVRLMASGGGLVQPGGSLRLSCAASEFTFSNYAMSWVRQAPGKGLEWVATISRGGDYTYYPDTVKGRFTISRDNSKNTLYLQMNSLRAEDTAVYYCARRVSAITGGWAMDYWGQGTLVTVSS
VL: DVVMTQSPLSLPVTLGQPASISCRSSQSIVDITGNTYLEWYQQRPGQSPRLLIYKVFNRFSGVPDRFSGSGSGTDFTLKISRVEAEDVGVYYCFQDSFVPYTFGQGTKLEIKR
notes: Humanized B-E29 variant; human IgG1 (G1m3) / kappa (Km3), produced in CHO cells; also called huVH7/huVL1
B3: huB-E29-30 (antibody, human IgG1, kappa, V domains shown)
VH: EVRLMASGGGLVQPGGSLRLSCAASEFTFSNYAMSWVRQAPGKGLEWVATISRGGDYTYYPDSVKGRFTISRDNSKNTLYLQMNSLRAEDTAVYYCARRVSFITGGYAMDYWGQGTLVTVSS
VL: DVVMTQSPLSLPVTLGQPASISCRSSQSIVDITGNTYLEWYQQRPGQSPRLLIYKVFNRFSGVPDRFSGSGSGTDFTLKISRVEAEDVGVYYCFQDSFVPYTFGQGTKLEIKR
notes: Humanized B-E29 variant; human IgG1 (G1m3) / kappa (Km3), produced in CHO cells; also called huVH20/huVL1
B4: huB-E29-14 (antibody, human IgG1, kappa, V domains shown)
VH: EVRLMASGGGLVQPGGSLRLSCAASEFTFSNYAMSWVRQAPGKGLEWVATISRGGDYTYYPDSVKGRFTISRDNSKNTLYLQMNSLRAEDTAVYYCARRVSMITGGWAFDYWGQGTLVTVSS
VL: DVVMTQSPLSLPVTLGQPASISCRSSQSIVDITGNTYLEWYQQRPGQSPRLLIYKVFNRFSGVPDRFSGSGSGTDFTLKISRVEAEDVGVYYCFQDSFVPYTFGQGTKLEIKR
notes: Humanized B-E29 variant; human IgG1 (G1m3) / kappa (Km3), produced in CHO cells; also called huVH12/huVL1
B5: huB-E29-7 (antibody, human IgG1, kappa, V domains shown)
VH: EVRLMASGGGLVQPGGSLRLSCAASEFTFSNYAMSWVRQAPGKGLEWVATISRGGDYTYYPESVKGRFTISRDNSKNTLYLQMNSLRAEDTAVYYCARRVSFITGGWAMDYWGQGTLVTVSS
VL: DVVMTQSPLSLPVTLGQPASISCRSSQSIVDITGNTYLEWYQQRPGQSPRLLIYKVFNRFSGVPDRFSGSGSGTDFTLKISRVEAEDVGVYYCFQDSFVPYTFGQGTKLEIKR
notes: Humanized B-E29 variant; human IgG1 (G1m3) / kappa (Km3), produced in CHO cells; also called huVH5/huVL1
B6: huB-E29-5 (antibody, human IgG1, kappa, V domains shown)
VH: EVRLMASGGGLVQPGGSLRLSCAASEFTFSNYAMSWVRQAPGKGLEWVATISRGGDYTYYPDSVKGRFTISRDNSKNTLYLQMNSLRAEDTAVYYCARRVSMITGGWAMDYWGQGTLVTVSS
VL: DVVMTQSPLSLPVTLGQPASISCRSSQSIVDITGNTYLEWYQQRPGQSPRRLIYKVFNRFSGVPDRFSGSGSGTDFTLKISRVEAEDVGVYYCFQDSFVPYTFGQGTKLEIKR
notes: Humanized B-E29 variant; human IgG1 (G1m3) / kappa (Km3), produced in CHO cells; also called huVH1/huVL3
B7: huB-E29-17 (antibody, human IgG1, kappa, V domains shown)
VH: EVRLMASGGGLVQPGGSLRLSCAASEFTFSNYAMSWVRQAPGKGLEWVATISRGGDYTYYPDTVKGRFTISRDNSKNTLYLQMNSLRAEDTAVYYCARRVSMITGGWAMDYWGQGTLVTVSS
VL: DVVMTQSPLSLPVTLGQPASISCRSSQSIVDITGNTYLEWYQQRPGQSPRLLIYKVFNRFSGVPDRFSGSGSGTDFTLKISRVEAEDVGVYYCFQDSFVPYTFGQGTKLEIKR
notes: Humanized B-E29 variant; human IgG1 (G1m3) / kappa (Km3), produced in CHO cells; also called huVH15/huVL1
B8: huB-E29-8 (antibody, human IgG1, kappa, V domains shown)
VH: EVRLMASGGGLVQPGGSLRLSCAASEFTFSNYAMSWVRQAPGKGLEWVATISRGGDYTYYPDTVKGRFTISRDNSKNTLYLQMNSLRAEDTAVYYCARRVSIITGGWAMDYWGQGTLVTVSS
VL: DVVMTQSPLSLPVTLGQPASISCRSSQSIVDITGNTYLEWYQQRPGQSPRLLIYKVFNRFSGVPDRFSGSGSGTDFTLKISRVEAEDVGVYYCFQDSFVPYTFGQGTKLEIKR
notes: Humanized B-E29 variant; human IgG1 (G1m3) / kappa (Km3), produced in CHO cells; also called huVH6/huVL1
B9: huB-E29-13 (antibody, human IgG1, kappa, V domains shown)
VH: EVRLMASGGGLVQPGGSLRLSCAASEFTFSNYAMSWVRQAPGKGLEWVATISRGGDYTYYPDSVKGRFTISRDNSKNTLYLQMNSLRAEDTAVYYCARRVSMITGGWALDYWGQGTLVTVSS
VL: DVVMTQSPLSLPVTLGQPASISCRSSQSIVDITGNTYLEWYQQRPGQSPRLLIYKVFNRFSGVPDRFSGSGSGTDFTLKISRVEAEDVGVYYCFQDSFVPYTFGQGTKLEIKR
notes: Humanized B-E29 variant; human IgG1 (G1m3) / kappa (Km3), produced in CHO cells; also called huVH11/huVL1

recombinant human IL-15 (Prospec cat no. CYT230), sequence (P40933 other isoform, or with tags, fused parts or gaps): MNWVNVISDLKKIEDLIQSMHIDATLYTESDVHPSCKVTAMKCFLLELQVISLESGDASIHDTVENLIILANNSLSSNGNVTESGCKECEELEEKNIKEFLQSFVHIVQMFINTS

For the first assay, the target named is recombinant human IL-15 (Prospec cat no. CYT230) (human, UniProt P40933 49-162). As to the kind of experiment: ELISA, plate-bound human IL-15; printed as BC50 (half-maximal binding concentration). The protocol:
(§1) Maxisorp plates were coated with recombinant human IL-15 (Prospec cat no. CYT230) or Rhesus macaque IL-15 (MyBiosource cat. no. MBS948894) at 100 ng/well in carbonate coating buffer for 2 hours at 37° C. Since published sequences of Rhesus macaque and Cynomolgus monkey IL-15 are identical, such recombinant IL-15 protein was referred to as Macaque Monkey IL-15. Tested human IL-15 recombinant protein has a sequence identical to that provided in SEQ ID NO: 1 but with an additional methionine at the N-terminal position as usually done for expressing recombinant proteins in E. Coli. Tested recombinant Macaque Monkey IL-15 was produced in yeast and has a sequence identical to that provided in SEQ ID NO: 4 but with an additional N-terminal His tag.
(§2) The plate was then blocked with 2% normal goat serum for 30 min at 37° C. and washed 6 times with PBS-Tween (0.05% Tween-20 in PBS, v/v). Test antibodies were added to the plate in triplicate at various dilutions in PBS-Tween and the plate was incubated with gentle rocking at room temperature for 2 hours. The plate was then washed 6 times with PBS-Tween and an appropriate dilution of goat anti-human IgG antibody (Millipore cat. no. AP309P) conjugated to horseradish peroxidase (HRP) was added to the plate and left rocking at room temperature for 1 hour. The plate was then washed 6 times with PBS-Tween and incubated with TMB substrate. The reaction was stopped by the addition of 1M H₂SO₄ and read at 450 nm. Dose response curves of absorbance versus concentration were plotted and analyzed to determine half-maximal binding concentrations (BC₅₀) using the Graphpad Prism software. BC₅₀ values expressed as molarity were extrapolated from concentration in ng/ml using a 150 kDa molecular weight value for all antibodies.
For the molecule B1, the EC50 was 3.87 nM. In the case of B2, the EC50 amounted to 1.99 nM. Same read-out and setting: next, B3: 5.87 nM; B4: 0.813 nM; B5: 0.84 nM. On the same count and under the same terms, next, B6: 1.47 nM; B7: 2.61 nM; B8: 1.79 nM. B9: the EC50 amounted to 3.17 nM.

For the next assay, the target named is T1, recombinant Macaque Monkey IL-15 (MyBiosource cat. no. MBS948894) (Rhesus macaque / Cynomolgus monkey, UniProt P40221 49-162 (Chlorocebus aethiops entry)).
T1 construct: Produced in yeast; also called Rhesus macaque IL-15; recombinant monkey IL-15; not shown: additional N-terminal His tag
T1 sequence (P40221 49-162): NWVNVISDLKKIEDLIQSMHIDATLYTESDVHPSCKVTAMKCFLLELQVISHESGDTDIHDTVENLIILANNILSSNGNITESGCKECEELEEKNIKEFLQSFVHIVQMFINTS
As to the kind of experiment: ELISA, plate-bound Macaque Monkey IL-15; printed as BC50 (half-maximal binding concentration). As to the method: as §1, §2
For B4, the EC50 is 0.347 nM.

With B5, the EC50 was 0.433 nM. In the case of B6, the EC50 came to 0.453 nM.

Usually EC50 stands for the concentration needed to bring the measured effect to its halfway point.
